Source: the supplement of paper PMC9112550, “Optimization of the antimicrobial peptide Bac7 by deep mutational scanning” (BMC Biology, 2022)

Tested on: Escherichia coli TOP10
Assay: shrunken log2 fold change of peptide-encoding DNA abundance (4.5 h post-induction vs induction); higher = less antimicrobial activity (less host growth inhibition)
Conditions: time post-induction: 4.5 h; library: site-saturation at positions 5, 18, 19, 20
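Note: peptides expressed intracellularly from a pBAD plasmid library in pooled LB shake-flask culture, induced with 0.3% L-arabinose, DNA abundance read by NGS, three biological replicates, DESeq2 with apeglm shrinkage.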

| Sequence | shrunken log2 fold change |
| --- | --- |
| RRIRERPPRLPRPRPRPERRPRP | -0.0345 |
| RRIRRRPPRLPRPRPRPSMKPRP | -0.434 |
| RRIRYRPPRLPRPRPRPCSNPRP | -0.00822 |
| RRIRDRPPRLPRPRPRPEELPRP | 0.00153 |
| RRIRWRPPRLPRPRPRPTCNPRP | 0.0836 |
| RRIRERPPRLPRPRPRPEGGPRP | 0.361 |
| RRIRKRPPRLPRPRPRPLGVPRP | 0.438 |
| RRIRNRPPRLPRPRPRPVQGPRP | 0.295 |
| RRIRTRPPRLPRPRPRPPHYPRP | 0.0354 |
| RRIRRRPPRLPRPRPRPEAPPRP | 0.708 |
| RRIRERPPRLPRPRPRPALLPRP | -0.23 |
| RRIRIRPPRLPRPRPRPKWTPRP | -0.116 |
| RRIRDRPPRLPRPRPRPKYPPRP | 0.0118 |
| RRIRGRPPRLPRPRPRPYEEPRP | 0.106 |
| RRIRMRPPRLPRPRPRPHFIPRP | 0.0859 |
| RRIRLRPPRLPRPRPRPAEEPRP | 0.133 |
| RRIRKRPPRLPRPRPRPKRQPRP | 0.0282 |
| RRIRIRPPRLPRPRPRPYCVPRP | -0.207 |
| RRIRSRPPRLPRPRPRPGMLPRP | -0.0372 |
| RRIRHRPPRLPRPRPRPWVSPRP | -0.683 |
| RRIRHRPPRLPRPRPRPTLRPRP | -0.0301 |
| RRIRTRPPRLPRPRPRPIYWPRP | -0.157 |
| RRIRSRPPRLPRPRPRPQMHPRP | -0.351 |

| Sequence | shrunken log2 fold change |
| --- | --- |
| RRIRRRPPRLPRPRPRPDMRPRP | 0.415 |
| RRIRLRPPRLPRPRPRPPTRPRP | 0.677 |
| RRIRWRPPRLPRPRPRPSACPRP | 0.382 |
| RRIRLRPPRLPRPRPRPPHPPRP | 0.404 |
| RRIRIRPPRLPRPRPRPLAAPRP | 0.255 |
| RRIRWRPPRLPRPRPRPKNIPRP | -0.159 |
| RRIRRRPPRLPRPRPRPAFKPRP | 0.291 |
| RRIRKRPPRLPRPRPRPCSLPRP | -0.529 |
| RRIRRRPPRLPRPRPRPSTGPRP | 0.112 |
| RRIRDRPPRLPRPRPRPVQMPRP | -0.0835 |
| RRIRARPPRLPRPRPRPKMKPRP | 0.131 |
| RRIRWRPPRLPRPRPRPDREPRP | -0.0009 |
| RRIRTRPPRLPRPRPRPSNGPRP | -0.126 |
| RRIRYRPPRLPRPRPRPRDRPRP | -0.116 |
| RRIRKRPPRLPRPRPRPTVYPRP | -0.0794 |
| RRIRNRPPRLPRPRPRPAVQPRP | 0.109 |
| RRIRWRPPRLPRPRPRPVVEPRP | 0.0281 |
| RRIRERPPRLPRPRPRPHAHPRP | -0.0467 |
| RRIRFRPPRLPRPRPRPESAPRP | 0.428 |
| RRIRMRPPRLPRPRPRPNPHPRP | 0.269 |
| RRIRYRPPRLPRPRPRPKMMPRP | -1.3 |
| RRIRTRPPRLPRPRPRPINPPRP | -0.0274 |
| RRIRTRPPRLPRPRPRPMPRPRP | 0.175 |

| Sequence | shrunken log2 fold change |
| --- | --- |
| RRIRPRPPRLPRPRPRPWMCPRP | -0.366 |
| RRIRGRPPRLPRPRPRPPHLPRP | 0.558 |
| RRIRNRPPRLPRPRPRPVTMPRP | -0.514 |
| RRIRDRPPRLPRPRPRPYSGPRP | -0.035 |
| RRIRRRPPRLPRPRPRPIALPRP | 0.0331 |
| RRIRTRPPRLPRPRPRPICHPRP | 0.055 |
| RRIRLRPPRLPRPRPRPKHHPRP | -0.296 |
| RRIRSRPPRLPRPRPRPTPHPRP | 0.308 |
| RRIRRRPPRLPRPRPRPTAWPRP | 0.288 |
| RRIRCRPPRLPRPRPRPDDRPRP | -0.0204 |
| RRIRWRPPRLPRPRPRPIHGPRP | 0.0966 |
| RRIRWRPPRLPRPRPRPNPYPRP | -0.133 |
| RRIRLRPPRLPRPRPRPIRAPRP | 0.301 |
| RRIRGRPPRLPRPRPRPTYPPRP | 0.0703 |
| RRIRGRPPRLPRPRPRPICSPRP | 0.122 |
| RRIRRRPPRLPRPRPRPADKPRP | -0.121 |
| RRIRCRPPRLPRPRPRPIPVPRP | -0.376 |
| RRIRARPPRLPRPRPRPRCAPRP | 0.716 |
| RRIRYRPPRLPRPRPRPDHRPRP | -0.227 |
| RRIRERPPRLPRPRPRPMMLPRP | -0.0415 |
| RRIRERPPRLPRPRPRPWCFPRP | -0.161 |
| RRIRFRPPRLPRPRPRPGISPRP | -0.0961 |
| RRIRTRPPRLPRPRPRPRGAPRP | 0.382 |

| Sequence | shrunken log2 fold change |
| --- | --- |
| RRIRDRPPRLPRPRPRPNWEPRP | 0.0184 |
| RRIRWRPPRLPRPRPRPVLFPRP | -0.0589 |
| RRIRARPPRLPRPRPRPECPPRP | 0.683 |
| RRIRDRPPRLPRPRPRPWPNPRP | 0.0619 |
| RRIRMRPPRLPRPRPRPNWGPRP | 0.448 |
| RRIRGRPPRLPRPRPRPFKMPRP | 0.143 |
| RRIRYRPPRLPRPRPRPDEVPRP | 0.000691 |
| RRIRRRPPRLPRPRPRPWHAPRP | 0.279 |
| RRIRTRPPRLPRPRPRPEQRPRP | -0.000852 |
| RRIRVRPPRLPRPRPRPPFSPRP | 0.15 |
| RRIRFRPPRLPRPRPRPVAIPRP | -0.0527 |
| RRIRKRPPRLPRPRPRPPIQPRP | 0.304 |
| RRIRKRPPRLPRPRPRPNWQPRP | 0.0483 |
| RRIRQRPPRLPRPRPRPMHSPRP | -0.165 |
| RRIRWRPPRLPRPRPRPHMGPRP | 0.0771 |
| RRIRLRPPRLPRPRPRPRWGPRP | 0.175 |
| RRIRDRPPRLPRPRPRPQIGPRP | -0.00672 |
| RRIRCRPPRLPRPRPRPPTEPRP | 1.77 |
| RRIRTRPPRLPRPRPRPEEIPRP | 0.0464 |
| RRIRRRPPRLPRPRPRPQVEPRP | 0.0147 |
| RRIRIRPPRLPRPRPRPNPCPRP | -0.159 |
| RRIRFRPPRLPRPRPRPYGWPRP | -0.0451 |
